Consider one sequence from paper PMC5651819, “AtSPX1 affects the AtPHR1–DNA-binding equilibrium by binding monomeric AtPHR1 in solution” (Biochemical Journal, 2017).

This data set deals with MBP-AtdPHR1 (Arabidopsis thaliana) (UniProt Q94CL7). The experiment in a line: SPR. As to conditions: SPR (Biacore 3000, SA chip, ~500 RU DNA): 10 mM HEPES pH 7.5, 200 mM NaCl, 0.01% Surfactant P-20, 25 C, 40 ul/min, with or without Pi/InsP6. Background: Surface plasmon resonance follows binding to a sensor surface in real time, without labels.
Sequence of MBP-AtdPHR1 (Arabidopsis thaliana) (Q94CL7 208-362): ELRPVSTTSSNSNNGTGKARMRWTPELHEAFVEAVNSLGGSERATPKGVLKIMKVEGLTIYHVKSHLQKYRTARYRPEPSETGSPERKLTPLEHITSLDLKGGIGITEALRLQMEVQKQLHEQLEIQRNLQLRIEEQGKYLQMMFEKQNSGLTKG

The Kd is the concentration at which binding is half-saturated. Low readings indicate tighter binding, high ones weaker binding. Sequence “ACACTTCGTCACGCTAAAGCTAAGCATATCCGCTTTCATATTCCTTTACACAAC (double strand) [1x P1BS probe]” had an equilibrium dissociation constant (Kd) of 707 nM.
